Laboratory results published in article PMC3894216 (PLoS Pathogens, 2014).

Target: the molecule itself
Assay: SDS-stable oligomer band of the purified protein

B1: GST-CNF1 N-terminal fragment (aa 1-342) (domain or fragment)
chain: MGNQWQQKYLLEYNELVSNFPSPERVVSDYIKNCFKTDLPWFSRIDPDNAYFICFSQNRSNSRSYTGWDHLGKYKTEVLTLTQAALINIGYRFDVFDDANSSTGIYKTKSADVFNEENEEKMLPSEYLHFLQKCDFAGVYGKTLSDYWSKYYDKFKLLLKNYYISSALYLYKNGELDEREYNFSMNALNRSDNISLLFFDIYGYYASDIFVAKNNDKVMLFIPGAKKPFLFKKNIADLRLTLKELIKDSDKQQLLSQHFSLYSRQDGVSYAGVNSVLHAIENDGNFNESYFLYSNKTLSNKDVFDAIAISVKKRSFSDGDIVIKSNSEAQRDYALTILQTIL
stoichiometry N: 4
